In assay [1] the target is human LGN TPR domain, residues 1-350, FLAG-tagged (and a GFP-tagged copy) (human). Kind of assay: co-IP; HEK293T co-transfected with FLAG-LGN^TPR, GFP-LGN^TPR and GFP-Insc^ASYM-ΔαB; anti-FLAG M2 sepharose beads, modified JS buffer, 1 h at 4 °C.
The target of assay [2] is human LGN TPR domain, fragment 15-350 (human). Kind of assay: SEC; purified co-expressed complexes on a size-exclusion column with globular markers, Coomassie SDS-PAGE of peak fractions.

Sequence of human LGN TPR domain, residues 1-350, FLAG-tagged (and a GFP-tagged copy) (human) (P81274 1-350): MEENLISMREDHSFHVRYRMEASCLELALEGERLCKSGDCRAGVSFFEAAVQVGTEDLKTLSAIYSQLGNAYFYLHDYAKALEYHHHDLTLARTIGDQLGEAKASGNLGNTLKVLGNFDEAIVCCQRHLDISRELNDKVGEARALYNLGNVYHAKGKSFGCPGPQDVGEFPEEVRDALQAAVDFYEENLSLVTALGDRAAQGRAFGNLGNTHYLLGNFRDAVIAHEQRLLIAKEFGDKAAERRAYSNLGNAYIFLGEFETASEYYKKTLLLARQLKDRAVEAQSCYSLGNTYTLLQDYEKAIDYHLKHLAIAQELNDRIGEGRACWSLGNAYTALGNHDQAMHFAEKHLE

B1: human GFP-Insc^ASYM-ΔαB (Insc^ASYM lacking residues 62-191) (domain or fragment)
chain: MMALPGGRHLDSVTLPGQRLHLMQVDSVQRWMEDLKLMTECECMCVLQAKPISLEEDAQGDVQALVRKIDASDNIYTTESTTGNLFSLTQEGAPLCRIIAKEGGVVALFKVCRQDSFRCLYPQALRTLASICCVEEGVHQLEKVDGVLCLADILTDNSHSEATRAEAAAVVAQVTSPHLPVTQHLSS
With B1, the stoichiometry N (Insc per LGN (1:1)) in assay [1] was determined as 1.

B2: human 6His-tagged full-length Insc (residues 1-532) (natural protein)
chain: MMALPGGRHLDSVTLPGQRLHLMQVDSVQRWMEDLKLMTECECMCVLQAKPISLEEDAQGDLILAGGPGPGDPLQLLLKRGWVISTELRRIGQKLAQDRWARVHSMSVRLTCHARSMVSEYSAVSRNSLKEMGEIEKLLMEKCSELSAVTERCLQVENEHVLKSMKACVSETLSMLGQHFGQLLELALTREVQALVRKIDASDNIYTTESTTGNLFSLTQEGAPLCRIIAKEGGVVALFKVCRQDSFRCLYPQALRTLASICCVEEGVHQLEKVDGVLCLADILTDNSHSEATRAEAAAVVAQVTSPHLPVTQHLSSFLESMEEIVTALVKLCQEASSGEVFLLASAALANITFFDTMACEMLLQLNAIRVLLEACSDKQRVDTPYTRDQIVTILANMSVLEQCASDIIQENGVQLIMGMLSEKPRSGTPAEVAACERVQQKAAVTLARLSRDPDVAREAVRLSCMSRLIELCRSPSERNSSDAVLVACLAALRRLAGVCPEGLQDSDFQQLVQPRLVDSFLLCSNMEESFV
In assay [2], B2 returned a stoichiometry N (Insc per LGN (2:2)) of 1.

The record behind these values is article PMC5844954.
